{
  "source": "paper PMC4172982",
  "key": {"[1]": {"biological_target": "26S proteasome from BALB/c mouse (mouse (endogenous in BALB/c brain)) (UniProt O35226)", "sequence (O35226 whole entry, looked up)": "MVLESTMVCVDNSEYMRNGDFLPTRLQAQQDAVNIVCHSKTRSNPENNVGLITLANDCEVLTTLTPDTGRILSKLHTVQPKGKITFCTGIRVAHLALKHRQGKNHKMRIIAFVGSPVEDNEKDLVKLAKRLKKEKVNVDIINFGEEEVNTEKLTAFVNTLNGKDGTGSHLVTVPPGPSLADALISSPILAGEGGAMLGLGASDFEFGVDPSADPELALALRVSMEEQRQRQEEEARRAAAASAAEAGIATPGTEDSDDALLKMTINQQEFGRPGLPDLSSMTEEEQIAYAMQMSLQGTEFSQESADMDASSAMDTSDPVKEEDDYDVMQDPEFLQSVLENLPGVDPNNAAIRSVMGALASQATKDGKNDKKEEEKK"}, "G-actin": {"biological_target": "G-actin (UniProt P60709)", "settings": "cited from earlier work"}, "F-actin": {"biological_target": "F-actin (UniProt P60709)", "settings": "cited from earlier work"}, "CaM": {"biological_target": "CaM (UniProt P0DP23)", "assay": "SPR", "settings": "cited from earlier work"}},
  "data": [
    {"substance": "Histone H1.3 human, recombinant (from UniProt P16402 1-221) (natural protein)", "values": [
      {"measurement": "theoretical KD estimated from the inhibition curve of 26S-mediated MBP hydrolysis, assuming that bound 26S proteasome cannot degrade MBP (blocks m1 with m2)", "setting": "[1]", "result": 1000, "unit": "nM"}
    ]},
    {"substance": "MBP (from UniProt P02686)", "values": [
      {"measurement": "Kd", "setting": "G-actin", "result": 66.6, "unit": "nM"},
      {"measurement": "Kd", "setting": "F-actin", "result": 65.3, "unit": "nM"}
    ]},
    {"substance": "MBP (from UniProt P04370)", "values": [
      {"measurement": "Kd", "setting": "CaM", "result": 200, "unit": "nM"}
    ]},
    {"substance": "MBP (from UniProt P81558)", "values": [
      {"measurement": "Kd", "setting": "CaM", "result": 148, "unit": "nM"}
    ]}
  ]
}
